Laboratory results reported in patent publication US7341992B2, “Lectin-like domain of thrombomodulin and its therapeutic use” (Vlaams Interuniversitair Instituut Voor Biotechnologie VZW, priority 2001, dated 2008).
“Also recorded” adds a separate entry of the source.

Assays:
fEND.5 cells = test: Static adhesion assay: human neutrophils on activated fEND.5 cells; assay type: cell-based, murine endothelial cell line; details: for LPS-induced adhesion of human neutrophils to fEND.5 cells (effect in words) / PMN Adhesion to LPS-stimulated fEND.5 Cells, Mean: LPS 20 μg/ml 3 hrs; for PMN Adhesion to LPS-stimulated fEND.5 Cells, Mean / PMN Adhesion to TNF-stimulated fEND.5 Cells, Mean: human neutrophils 50,000 per well; for TNF-induced adhesion of human neutrophils to fEND.5 cells (effect in words) / PMN Adhesion to TNF-stimulated fEND.5 Cells, Mean: TNFα 200 U/ml 3 hrs
Experimental: Static adhesion assays using human neutrophils (50,000 per well) and confluent fEND.5 cells in 24-well plates were performed exactly as described (see below—Methods section 11). Where noted, TNFα (200 U/ml) or LPS 20 μg/ml, were used to activate the fEND.5 cells for 3 hrs. PMNs were co-incubated with one of the recombinant human TM fragments 1, 2 or 4, (SEQ ID NO 1, 2, 4) or with HPLC-purified peptides representing human TM fragments 3,6 or 7 (SEQ ID NO 3, 6, 7). Tables 11-17 show results, where the amount of recombinant fragment in μg is shown on the bar graphs, and * indicates p<0.05 as compared with buffer control (i.e. without recombinant protein) under the same conditions. In all cases, appropriate controls were used for comparisons.
(§1) Endothelial cells were plated in 24-well dishes and grown to confluence. Following 2 washes of the cell monolayers with HBSS, freshly prepared BCECF-AM-labeled, neutrophils derived from human peripheral blood, or murine bone marrow-derived PMNs or lymphocytes 50,000 per well, were added in a final volume of 1 ml for 30 minutes at room temperature. The media was decanted and the cell monolayers were gently washed three times with HBSS after which the adherent fluorescently labeled leukocytes were counted with an inverted epiflourescence microscope as described above.

IL-1β = test: Cytokine response in vivo after LPS i.p. in wild-type mice; details: LPS 20 μg/gm i.p.
Experimental: Table 10: Effect of recombinant TMlec155 on cytokine response in vivo. Wild-type mice were treated with LPS 20 μg/gm i.p., following 5 min later with the noted treatment. Plasma levels of IL-1b were measured 3 hours later
Constitutive levels of circulating soluble TM, composed of proteolytic components of the extracellular domains, are found in the plasma of normal individuals, while quantitative changes occur in different disease states. Purified recombinant TMlec155 was prepared using the Pichia pastoris expression system, and further purified by a series of chromatographic steps as detailed in the methods. In a static adhesion assay on TM^Led/Led endothelial cells, PMNs were co-incubated with TMlec155 at two concentrations. […] After a further 3 hours, the serum cytokine response was determined.
Double antibody sandwich ELISA kits, purchased from R & D Systems Europe (Abingdon, UK), were used to quantitate murine plasma levels of TNFα, IL-1β, IL-6 and IL-10. […] A sensitive and specific radioimmunoassay to quantitate plasma levels of murine FPA was performed as previously reported^24.
Lipopolysaccharide (LPS) from Escherichia coli serotype 0111:B4 (Sigma) was injected intraperitoneally into 10-12 week old mice. For lethality studies, animals were closely monitored each day until either recovery or cessation of breathing. […]

[1] = test system: TM^LeD/LeD endothelial cells; test: Static adhesion assay: murine PMNs on endothelial cells from TM^LeD/LeD mice; assay type: cell-based; details: for PMN Adhesion (# per 15 HPFs): PMNs from wild-type mice
Experimental: Constitutive levels of circulating soluble TM, composed of proteolytic components of the extracellular domains, are found in the plasma of normal individuals, while quantitative changes occur in different disease states. Purified recombinant TMlec155 was prepared using the Pichia pastoris expression system, and further purified by a series of chromatographic steps as detailed in the methods. In a static adhesion assay on TM^Led/Led endothelial cells, PMNs were co-incubated with TMlec155 at two concentrations. Adhesion of PMNs to the resting endothelial cells was, as before, increased as compared with adhesion to wild-type endothelial cells (Table 9). […] The degree of suppression of adhesion was almost to the level of adhesion to wild-type endothelial cells. […] The role of recombinant TMlec155 in vivo was tested by injecting wild-type mice with LPS 20 μg/gm i.p., followed 5 minutes later with an intravenous bolus of recombinant TMlec155 or buffer alone. After a further 3 hours, the serum cytokine response was determined.
Endothelial tumors were induced to grow in 7 day old mice following intraperitoneal (i.p.) injection of retrovirus carrying the middle T antigen of murine Polyomavirus (PymT). After 10-14 days, the tumors were excised, and endothelial cells were isolated^32.33. Primary cultures of lymphatic endothelial cells were isolated from intraperitoneal lymphangiomas, growth of which was induced by injection of incomplete Freund's adjuvant exactly as described^34. Cells were cultured on collagen or gelatin coated plates in M199 media supplemented with 20% fetal bovine serum, porcine heparin 0.1 mg/ml, endothelial cell mitogen 5 μg/ml (Biomedical Technologies Inc., Stoughton, Mass.), 100 μg/ml penicillin and streptomycin 100 μg/ml. Cell cultures were incubated at 37° C. in a humidified atmosphere of 5% CO2 and 95% air, and experiments were performed at passage 3-8. Over 95% of the cells immuno-stained positively for TM and vWF, confirming the endothelial origin and purity.
Neutrophils and lymphocytes were isolated from bone marrow according to the method of Lowell and Berton ^35. Each population was assessed to be over 95% pure by microscopic analysis after Wright staining.
as §1

HUVECs = test: Rescue of HUVECs from serum starvation-induced cell death; assay type: cell-based, human; details: 3 days of serum deprivation
Experimental: Because endothelial cell death is a pathway of sustained tissue damage, we evaluated whether TMlec155 was capable of rescuing HUVECs from serum starvation-induced cell death. After 3 days of serum deprivation, over 95% of HUVECs died. Serum starvation with the addition of TMlec155 at concentrations of 1, 10 and 20 μg/ml rescued 2±0.6%, 18±7% and 34±14% of the cells (p=0.69, p<0.05, p<0.05, respectively compared with serum-starved controls), showing that soluble TM rnay also have pro-survival properties.

pERK1/2 and NFκB = test: TNFα-induced pERK1/2 and NFκB in HUVECs; assay type: cell-based, human; details: TNFα 200 U/ml for 20 minutes
Experimental: We predicted that soluble lectin-like domain of TM would suppress PMN adhesion by altering regulation of MAP kinase pathways in ECs. Therefore, HUVECs were exposed to TNFα (200 U/ml) for 20 minutes. […] Total ERK1/2 levels remained unchanged.

Molecule	LPS-induced adhesion of human neutrophils to fEND.5 cells (effect in words) (fEND.5 cells)	PMN Adhesion to LPS-stimulated fEND.5 Cells, Mean (fEND.5 cells; 1 μg of fragment)	PMN Adhesion to LPS-stimulated fEND.5 Cells, Mean (fEND.5 cells; 5 μg of fragment)	PMN Adhesion to LPS-stimulated fEND.5 Cells, Mean (fEND.5 cells; 8 μg of fragment)	PMN Adhesion to LPS-stimulated fEND.5 Cells, Mean (fEND.5 cells; 15 μg of fragment)	TNF-induced adhesion of human neutrophils to fEND.5 cells (effect in words) (fEND.5 cells)	also measured
pept n^o 23: HPLC-purified peptide, amino acids 84-97 of SEQ ID NO: 1 (human TM)	significantly suppressed	31.015	21.535	–	–	–	–
pept. N^o 24: HPLC-purified peptide, amino acids 3-33 of SEQ ID NO: 1 (human TM) (PQPGGSQCVEHDCFALYPGPATFLNASQICD; PEPTIDE (1)...(31) Human thrombomodulin fragment 3; listed as Homo sapiens)	significantly suppressed	38.830	44.019	22.000	–	–	–
TMlec155: Recombinant first 155 amino acids of murine TM, restricted to the lectin-like region, polyhistidine-tagged, expressed in Pichia pastoris (protein, left off: small tags and cut ends, Recombinant first 155 amino acids of murine TM, restricted to the lectin-like region, polyhistidine-tagged, expressed in Pichia pastoris) LSALAKLQPTGSQCVEHECFALFQGPATFLDASQACQRLQGHLMTVRSSVAADVISLLLSQSSMDLGPWIGLQLPQGCDDPVHLGPLRGFQWVTGDNHTSYSRWARPNDQTAPLCGPLCVTVSTATEAAPGEPAWEEKPCETETQGFLCEFYFTA	–	–	–	–	–	–	IL-1β levels (effect in words) (IL-1β; i.v. bolus 5 minutes later, 3 hours, compared with control): significantly suppressed; IL-1β (IL-1β; treatment i.v. bolus 5 min later, plasma 3 hours later): 286 ± 75 ng/mL; PMN Adhesion (# per 15 HPFs) ([1]; TM^LeD/LeD + TNF endothelial cells, recombinant TMlec155 3.6 mg): 132 ± 90 # per 15 HPFs; PMN Adhesion (# per 15 HPFs) ([1]; TM^LeD/LeD + TNF endothelial cells, recombinant TMlec155 7.2 mg): 153 ± 106 # per 15 HPFs; PMN Adhesion (# per 15 HPFs) ([1]; resting TM^LeD/LeD endothelial cells, recombinant TMlec155 3.6 mg): 15 ± 6 # per 15 HPFs; PMN Adhesion (# per 15 HPFs) ([1]; resting TM^LeD/LeD endothelial cells, recombinant TMlec155 7.2 mg): 12 ± 7 # per 15 HPFs; Adhesion of PMNs to TNFα-activated TM^Led/Led endothelial cells (effect in words) ([1]; static adhesion assay, PMNs co-incubated with TMlec155): significantly reduced; Adhesion of PMNs to resting TM^Led/Led endothelial cells (effect in words) ([1]; static adhesion assay, PMNs co-incubated with TMlec155 at two concentrations): significantly decreased; also recorded: abrogated; also recorded: significant decrease in adhesion; cells rescued from serum starvation-induced cell death (HUVECs; 1 μg/ml): 2±0.6%; cells rescued from serum starvation-induced cell death (HUVECs; 10 μg/ml): 18±7%; cells rescued from serum starvation-induced cell death (HUVECs; 20 μg/ml): 34±14%; Accumulation of NFκB (pERK1/2 and NFκB): similarly interfered; Accumulation of pERK1/2 (pERK1/2 and NFκB): similarly interfered
pr. 480 bp: Recombinant human TM fragment, amino acids 1 to 157 of the mature protein, expressed in Pichia pastoris (protein, listed as Homo sapiens, PEPTIDE (1)...(157) Human thrombomodulin fragment 2, Recombinant human TM fragment, amino acids 1 to 157 of the mature protein, expressed in Pichia pastoris) AEPQPGGSQCVEHDCFALYPGPATFLNASQICDGLRGHLMTVRSSVAADVISLLLNGDGGVGRRRLWIGLQLPPGCGDPKRLGPLRGFQWVTGDNNTSYSRWARLDLNGAPLCGPLCVAVSAAEATVPSEPIWEEQQCEVKADGFLCEFHFPATCRP	significantly suppressed	–	27.68	25.50	19.01	–	–
pr. 400 bp: Recombinant human TM fragment, amino acids 33 to 159 of the mature protein, expressed in Pichia pastoris (protein, listed as Homo sapiens, PEPTIDE (1)...(127) Human thrombomodulin fragment 4, Recombinant human TM fragment, amino acids 33 to 159 of the mature protein, expressed in Pichia pastoris) DGLRGHLMTVRSSVAADVISLLLNGDGGVGRRRLWIGLQLPPGCGDPKRLGPLRGFQWVTGDNNTSYSRWARLDLNGAPLCGPLCVAVSAAEATVPSEPIWEEQQCEVKADGFLCEFHFPATCRPLA	suppressed	–	33.642	29.725	–	suppressed	PMN Adhesion to TNF-stimulated fEND.5 Cells, Mean (fEND.5 cells; 8 μg of fragment): 53.417; PMN Adhesion to TNF-stimulated fEND.5 Cells, Mean (fEND.5 cells; 20 μg of fragment): 63.500
pr. 680 bp: Recombinant human TM fragment, amino acids 1 to 224 of the mature protein, entire N-terminal domain, expressed in Pichia pastoris (protein, listed as Homo sapiens, PEPTIDE (1)...(224) Human thrombomodulin fragment 1, Recombinant human TM fragment, amino acids 1 to 224 of the mature protein, entire N-terminal domain, expressed in Pichia pastoris) AEPQPGGSQCVEHDCFALYPGPATFLNASQICDGLRGHLMTVRSSVAADVISLLLNGDGGVGRRRLWIGLQLPPGCGDPKRLGPLRGFQWVTGDNNTSYSRWARLDLNGAPLCGPLCVAVSAAEATVPSEPIWEEQQCEVKADGFLCEFHFPATCRPLAVEPGAAAAAVSITYGTPFAARGADFQALPVGSSAAVAPLGLQLMCTAPPGAVQGHWAREAPGAWD	significantly suppressed	–	29.403	24.292	18.333	significantly suppressed	PMN Adhesion to TNF-stimulated fEND.5 Cells, Mean (fEND.5 cells; 5 μg of fragment): 85.656; PMN Adhesion to TNF-stimulated fEND.5 Cells, Mean (fEND.5 cells; 10 μg of fragment): 24.303
